# Measured values taken from publication PMC7037862, “Tricyclic Nucleobase Analogs and Their Ribosides as Substrates and Inhibitors of Purine-Nucleoside Phosphorylases III. Aminopurine Derivatives” (Molecules, 2020).
# T1: E. coli PNP-wt (Escherichia coli, UniProt P0ABP8)
# T1 construct: made in house; host or cells: E. coli
# T1 sequence (P0ABP8 2-239 limits assumed): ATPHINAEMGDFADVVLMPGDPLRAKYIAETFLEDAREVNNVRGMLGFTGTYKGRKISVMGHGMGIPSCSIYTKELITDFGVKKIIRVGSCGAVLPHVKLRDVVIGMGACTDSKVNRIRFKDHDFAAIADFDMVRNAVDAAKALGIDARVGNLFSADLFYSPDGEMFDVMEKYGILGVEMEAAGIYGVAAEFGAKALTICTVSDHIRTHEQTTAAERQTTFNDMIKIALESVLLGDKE
# T2: calf PNP-wt (Bos taurus, UniProt P55859)
# T2 construct: made in house; host or cells: E. coli
# T2 sequence (P55859 1-289): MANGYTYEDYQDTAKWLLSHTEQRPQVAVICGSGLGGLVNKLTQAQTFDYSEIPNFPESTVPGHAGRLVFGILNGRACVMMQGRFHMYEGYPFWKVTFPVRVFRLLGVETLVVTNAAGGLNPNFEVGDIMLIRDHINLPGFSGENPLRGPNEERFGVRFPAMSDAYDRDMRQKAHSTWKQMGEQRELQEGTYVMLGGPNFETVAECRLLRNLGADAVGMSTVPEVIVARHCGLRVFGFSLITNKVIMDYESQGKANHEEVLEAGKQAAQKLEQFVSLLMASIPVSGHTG
# B1: calf spleen PNP (wt) (Bos taurus) (protein)
# chain: MANGYTYEDYQDTAKWLLSHTEQRPQVAVICGSGLGGLVNKLTQAQTFDYSEIPNFPESTVPGHAGRLVFGILNGRACVMMQGRFHMYEGYPFWKVTFPVRVFRLLGVETLVVTNAAGGLNPNFEVGDIMLIRDHINLPGFSGENPLRGPNEERFGVRFPAMSDAYDRDMRQKAHSTWKQMGEQRELQEGTYVMLGGPNFETVAECRLLRNLGADAVGMSTVPEVIVARHCGLRVFGFSLITNKVIMDYESQGKANHEEVLEAGKQAAQKLEQFVSLLMASIPVSGHTG
# notes: made in house; host or cells: E. coli
# B2: calf PNP N243D (Bos taurus; N243D) (protein)
# chain: MANGYTYEDYQDTAKWLLSHTEQRPQVAVICGSGLGGLVNKLTQAQTFDYSEIPNFPESTVPGHAGRLVFGILNGRACVMMQGRFHMYEGYPFWKVTFPVRVFRLLGVETLVVTNAAGGLNPNFEVGDIMLIRDHINLPGFSGENPLRGPNEERFGVRFPAMSDAYDRDMRQKAHSTWKQMGEQRELQEGTYVMLGGPNFETVAECRLLRNLGADAVGMSTVPEVIVARHCGLRVFGFSLITDKVIMDYESQGKANHEEVLEAGKQAAQKLEQFVSLLMASIPVSGHTG
# notes: as for B1
# B3: E. coli PNP (wt) (Escherichia coli K-12) (protein)
# chain: ATPHINAEMGDFADVVLMPGDPLRAKYIAETFLEDAREVNNVRGMLGFTGTYKGRKISVMGHGMGIPSCSIYTKELITDFGVKKIIRVGSCGAVLPHVKLRDVVIGMGACTDSKVNRIRFKDHDFAAIADFDMVRNAVDAAKALGIDARVGNLFSADLFYSPDGEMFDVMEKYGILGVEMEAAGIYGVAAEFGAKALTICTVSDHIRTHEQTTAAERQTTFNDMIKIALESVLLGDKE
# notes: as for B1
# B4: E. coli PNP-wt (Escherichia coli K-12) (protein)
# chain: ATPHINAEMGDFADVVLMPGDPLRAKYIAETFLEDAREVNNVRGMLGFTGTYKGRKISVMGHGMGIPSCSIYTKELITDFGVKKIIRVGSCGAVLPHVKLRDVVIGMGACTDSKVNRIRFKDHDFAAIADFDMVRNAVDAAKALGIDARVGNLFSADLFYSPDGEMFDVMEKYGILGVEMEAAGIYGVAAEFGAKALTICTVSDHIRTHEQTTAAERQTTFNDMIKIALESVLLGDKE
# notes: as for B1
# What was measured:
# [1] = Ionization constants (pKa), determined spectrophotometrically; type: physicochemical; conditions: phosphate and/or acetate buffers, protonation, read-out: pKa (protonation)
# Procedure: Fluorescence spectra were measured on a Varian Eclipse instrument (Varian Corp., Palo Alto, CA, USA), and UV absorption kinetic experiments were performed on a Cary 5000 (Varian Corp., Palo Alto, CA, USA) thermostated spectrophotometer. Fluorescence yields were determined relative to tryptophan (0.15) or 1,N^6-ethenoadenosine in water (0.56, see ref. [2]). Emission spectra were measured in semi-micro cuvettes, pathlength 4 mm, to diminish the inner-filter effect. Typical spectral resolution was 2.5 nm. The ionization constants (pKa values) were determined spectrophotometrically using 20–50 mM phosphate and/or acetate buffers.
# E. coli PNP-wt = molecular target: T1, E. coli PNP-wt; assay: Enzymatic phosphorolysis of ribosides, E. coli PNP wild type; type: biochemical; conditions: relative to Vmax of guanosine phosphorolysis (=100)
# Procedure: (§1) Recombinant E. coli PNP, calf spleen PNP, and their mutated forms were expressed in E. coli and purified according to the procedures described earlier. Enzyme concentrations were calculated per monomer.
# (§2) Enzymatic ribosylation reactions were carried out in 1 mL cuvettes (pathlength 4 mm) in ~50 mM HEPES buffer, pH 7.3, using 0.5 mM R1P as a ribose source. Reactions were followed fluorimetrically (see Section 2.4). On a larger scale (2–4 mg), the reactions were run in Eppendorf tubes, volume 2–3 mL, using either R1P (3–10 mM) or 7-methylguanosine as ribose sources. Products were purified by semi-preparative HPLC, concentrated and the final solutions kept frozen. Their structure has been confirmed by NMR (see Section 2.4 and Supplementary Materials) and by MS: comp. 3: m/z = 292.10385, comp. 4: m/z = 292.10400, comp. 5: m/z = 292.10398, calculated for C12H13N5O4 + H: 292.10403. Phosphorolysis reactions were run in 40–50 mM phosphate buffer, pH 7.0 or 6.5, and followed spectrally or fluorimetrically. Kinetic parameters were calculated by standard methods.
# calf PNP-wt = molecular target: T2, calf PNP-wt; assay: Enzymatic phosphorolysis of ribosides, calf PNP wild type; type: biochemical; conditions: relative to Vmax of guanosine phosphorolysis (=100)
# Procedure: as §1, §2
# [2] = substrate: c1cn2c(n1)ncc1nc[nH]c12; assay: Enzymatic ribosylation with α-D-ribose-1-phosphate, calf PNP wild type; type: biochemical; conditions: other: ribosylation by R1P, calf-wt PNP, 40 mM HEPES pH 7
# Procedure: as §1, §2
# [3] = substrate: c1cn2c(n1)ncc1nc[nH]c12; assay: Enzymatic ribosylation with α-D-ribose-1-phosphate, calf PNP N243D mutant; type: biochemical; conditions: other: ribosylation by R1P, 40 mM HEPES pH 7
# Procedure: as §1, §2
# [4] = substrate: c1cn2c(n1)ncc1nc[nH]c12; assay: Enzymatic ribosylation with α-D-ribose-1-phosphate, E. coli PNP wild type; type: biochemical
# Procedure: as §1, §2
# [5] = substrate: OC[C@H]1O[C@@H](n2ccn3c4ncnc-4cnc23)[C@H](O)[C@@H]1O; assay: Enzymatic phosphorolysis of ribosides, E. coli PNP wild type; type: biochemical; conditions: other: phosphorolysis, E. coli PNP-wt, 40 mM phosphate buffer pH 7
# Procedure: as §1, §2
# [6] = substrate: OC[C@H]1O[C@@H](n2ccn3cc4ncnc-4nc23)[C@H](O)[C@@H]1O; assay: as above; type: biochemical; conditions: other: phosphorolysis, E. coli PNP-wt, 40 mM phosphate buffer pH 7
# Procedure: as §1, §2
molecule,measurement,setting,value
"OC[C@H]1O[C@@H](n2ccn3c4ncnc-4cnc23)[C@H](O)[C@@H]1O [Compound 5, N^2,3-etheno-2-aminopurine-N^2-β-D-riboside]",pKa,[1],6.15
same,Vmax (Relative),E. coli PNP-wt,115
same,Vmax (Relative),calf PNP-wt,3
B1,Km,[2],~8 µM
B2,Km,[3],110 µM
B3,Km,[4]; other: E. coli PNP and its mutated forms,10 µM
same,Km,"[4]; other: ribosylation by R1P, E. coli-wt PNP, 40 mM HEPES pH 7, pH 7.0",11 µM
B4,Km,[5],~ 20 μM
same,Km,[6],47 µM
